Data as given in article PMC7039212 (The Journal of Cell Biology, 2019).
One block for each molecule: values may come before it.

Tests used:
Test in all cases: MST
[1] = biological target: Cy5-G-actin (UniProt P68135)
[2] = biological target: T1, GFP-CD2AP-1–475 aa (human, UniProt Q9Y5K6 1-475)
T1 sequence (looked up): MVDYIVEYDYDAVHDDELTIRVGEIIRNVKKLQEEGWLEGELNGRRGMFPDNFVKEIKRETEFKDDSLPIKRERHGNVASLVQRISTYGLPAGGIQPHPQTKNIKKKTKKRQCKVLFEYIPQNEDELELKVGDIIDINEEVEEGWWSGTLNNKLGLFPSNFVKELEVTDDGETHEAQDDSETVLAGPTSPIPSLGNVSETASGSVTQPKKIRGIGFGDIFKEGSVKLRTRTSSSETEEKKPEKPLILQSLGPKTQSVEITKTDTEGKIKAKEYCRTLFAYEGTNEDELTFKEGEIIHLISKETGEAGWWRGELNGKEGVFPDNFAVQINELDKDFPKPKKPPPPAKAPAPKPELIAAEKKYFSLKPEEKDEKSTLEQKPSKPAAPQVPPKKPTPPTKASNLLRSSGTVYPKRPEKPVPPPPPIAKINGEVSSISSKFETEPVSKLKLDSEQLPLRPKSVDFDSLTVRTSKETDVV

[3] = biological target: T2, GFP-CD2AP-1-335 aa (human, UniProt Q9Y5K6 1-335)
T2 sequence (looked up): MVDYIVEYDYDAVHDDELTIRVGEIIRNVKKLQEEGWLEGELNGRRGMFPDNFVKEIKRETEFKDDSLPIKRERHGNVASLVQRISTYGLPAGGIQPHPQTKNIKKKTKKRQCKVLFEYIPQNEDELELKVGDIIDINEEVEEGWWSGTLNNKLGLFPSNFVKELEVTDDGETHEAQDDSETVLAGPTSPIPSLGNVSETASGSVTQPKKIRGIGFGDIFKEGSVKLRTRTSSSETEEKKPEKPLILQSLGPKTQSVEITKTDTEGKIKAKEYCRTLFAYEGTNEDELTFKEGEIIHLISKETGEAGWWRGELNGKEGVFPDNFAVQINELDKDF

Kd [1]: 150 nM
Molecule: profilin (from UniProt P07737 1-140) (natural protein)

Kd [2]: 940 nM
Kd [3]: 350 nM
B1: PI3K p85α 1–315 aa (domain or fragment, human, UniProt P27986 1-315, looked up)
chain: MSAEGYQYRALYDYKKEREEDIDLHLGDILTVNKGSLVALGFSDGQEARPEEIGWLNGYNETTGERGDFPGTYVEYIGRKKISPPTPKPRPPRPLPVAPGSSKTEADVEQQALTLPDLAEQFAPPDIAPPLLIKLVEAIEKKGLECSTLYRTQSSSNLAELRQLLDCDTPSVDLEMIDVHVLADAFKRYLLDLPNPVIPAAVYSEMISLAPEVQSSEEYIQLLKKLIRSPSIPHQYWLTLQYLLKHFFKLSQTSSKNLLNARVLSEIFSPMLFRFSAASSDNTENLIKVIEILISTEWNERQPAPALPPKPPKPT
